This test addresses M2 protein of influenza A/Hong Kong/483/97 (H5N1) (Influenza A virus A/Hong Kong/483/97).

“And” between values parts separate entries of the source, which are not always exact repeats. Equal values may be shown once.

TCN-032 (8I10) (antibody), sequence (VH): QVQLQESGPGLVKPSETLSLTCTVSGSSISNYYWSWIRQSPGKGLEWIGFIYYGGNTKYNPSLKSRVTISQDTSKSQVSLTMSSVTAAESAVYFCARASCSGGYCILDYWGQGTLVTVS
TCN-032 (8I10) (antibody), sequence (VL): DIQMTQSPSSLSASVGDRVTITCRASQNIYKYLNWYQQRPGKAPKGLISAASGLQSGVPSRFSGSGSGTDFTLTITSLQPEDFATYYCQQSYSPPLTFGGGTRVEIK

In the case of TCN-032 (8I10) (antibody), the FACS M2-HK MFI was 754 MFI and 1080 MFI.
